Experimental data published in US6660837.

Legend:
[1] = target: [γ-32P]GTP·GST-RhoA (human) (UniProt P61586); assay: cell-based or functional assay
[2] = tested on: [Ser^46] PKN (39-53) peptide

[γ-32P]GTP·GST-RhoA (human), sequence (P61586 whole entry): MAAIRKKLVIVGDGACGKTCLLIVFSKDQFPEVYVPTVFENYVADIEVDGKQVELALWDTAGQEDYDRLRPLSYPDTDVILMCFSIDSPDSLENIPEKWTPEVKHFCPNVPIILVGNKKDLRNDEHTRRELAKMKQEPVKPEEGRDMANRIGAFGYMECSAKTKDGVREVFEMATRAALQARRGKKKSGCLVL

half life of GTP bound to RhoA (endogenous GTPase activity) [1] | Substance | Km (phosphorylation of the peptide by PKN) [2]
> 15 min | GST-PKN (N-terminal region of human PKN, amino acid sequence 1-538, fused to GST) (from UniProt Q16512 1-538) | 
 | PKN purified from rat testis cytosol | a Km of approximately 25 µM
